Where “and” joins values, the source holds several entries; their conditions need not be identical. Equal entries are not always repeated.
Legend:
CHO细胞裂解液 [1] = assay: sandwich ELISA, coat B2, detection biotin-B6, lysate 1 mg/ml
HEK293细胞裂解液 [2] = assay: as above
Vero细胞裂解液 [3] = assay: as above
HEK293细胞裂解液 [4] = assay: sandwich ELISA, coat B2, detection biotin-B6, lysate 500 ug/ml
CHO细胞裂解液 [5] = assay: sandwich ELISA, coat B2, detection biotin-B6, lysate 7.81 ug/ml
HEK293细胞裂解液 [6] = assay: as above
Vero细胞裂解液 [7] = assay: as above
CHO细胞裂解液 [8] = assay: sandwich ELISA, coat B2, detection biotin-B6, lysate 15.63 ug/ml
HEK293细胞裂解液 [9] = assay: as above
Vero细胞裂解液 [10] = assay: as above
CHO细胞裂解液 [11] = assay: sandwich ELISA, coat B2, detection biotin-B6, lysate 31.25 ug/ml
HEK293细胞裂解液 [12] = assay: as above
Vero细胞裂解液 [13] = assay: as above
牛血清白蛋白(BSA) (bovine) [14] = target: 牛血清白蛋白(BSA) (bovine) (UniProt P02769); assay: sandwich ELISA, coat B2 2 ug/ml, BSA 1 ng/ml, detection biotin-B4 0.2 ug/ml
牛血清白蛋白(BSA) (bovine) [15] = target: 牛血清白蛋白(BSA) (bovine) (UniProt P02769); assay: sandwich ELISA, coat B2 2 ug/ml, BSA 3 ng/ml, detection biotin-B6 0.2 ug/ml
牛血清白蛋白(BSA) (bovine) [16] = target: 牛血清白蛋白(BSA) (bovine) (UniProt P02769); assay: sandwich ELISA, coat B2 2 ug/ml, BSA 12 ng/ml, detection biotin-B6 0.2 ug/ml
牛血清白蛋白(BSA) (bovine) [17] = target: 牛血清白蛋白(BSA) (bovine) (UniProt P02769); assay: sandwich ELISA, coat B2 2 ug/ml, BSA 24 ng/ml, detection biotin-B6 0.2 ug/ml
牛血清白蛋白(BSA) (bovine) [18] = target: 牛血清白蛋白(BSA) (bovine) (UniProt P02769); assay: sandwich ELISA, coat B2 2 ug/ml, BSA 48 ng/ml, detection biotin-B6 0.2 ug/ml
牛血清白蛋白(BSA) (bovine) [19] = target: 牛血清白蛋白(BSA) (bovine) (UniProt P02769); assay: sandwich ELISA, coat B2 2 ug/ml, BSA 0.75 ng/ml, detection biotin-B6 0.2 ug/ml
牛血清白蛋白(BSA) (bovine) [20] = target: 牛血清白蛋白(BSA) (bovine) (UniProt P02769); assay: ELISA, BSA coated at 1 ug/ml, biotin-labelled antibody at dilution 16K, HRP-avidin
牛血清白蛋白(BSA) (bovine) [21] = target: 牛血清白蛋白(BSA) (bovine) (UniProt P02769); assay: ELISA, BSA coated at 1 ug/ml, biotin-labelled antibody at dilution 32K, HRP-avidin
牛血清白蛋白(BSA) (bovine) [22] = target: 牛血清白蛋白(BSA) (bovine) (UniProt P02769); assay: ELISA, BSA coated at 1 ug/ml, biotin-labelled antibody at dilution 256K, HRP-avidin
牛血清白蛋白(BSA) (bovine) [23] = target: 牛血清白蛋白(BSA) (bovine) (UniProt P02769); assay: ELISA, BSA coated at 1 ug/ml, biotin-labelled antibody at dilution 512K, HRP-avidin
牛血清白蛋白(BSA) (bovine) [24] = target: 牛血清白蛋白(BSA) (bovine) (UniProt P02769); assay: sandwich ELISA, coat B2 2 ug/ml, BSA 3 ng/ml, detection biotin-B6 0.2 ug/ml, mean of A and B
牛血清白蛋白(BSA) (bovine) [25] = target: 牛血清白蛋白(BSA) (bovine) (UniProt P02769); assay: sandwich ELISA, coat B2 2 ug/ml, BSA 12 ng/ml, detection biotin-B6 0.2 ug/ml, mean of A and B
牛血清白蛋白(BSA) (bovine) [26] = target: 牛血清白蛋白(BSA) (bovine) (UniProt P02769); assay: sandwich ELISA, coat B2 2 ug/ml, BSA 24 ng/ml, detection biotin-B6 0.2 ug/ml, mean of A and B
牛血清白蛋白(BSA) (bovine) [27] = target: 牛血清白蛋白(BSA) (bovine) (UniProt P02769); assay: sandwich ELISA, coat B2 2 ug/ml, BSA 48 ng/ml, detection biotin-B6 0.2 ug/ml, mean of A and B
牛血清白蛋白(BSA) (bovine) [28] = target: 牛血清白蛋白(BSA) (bovine) (UniProt P02769); assay: sandwich ELISA, coat B2 2 ug/ml, BSA 1.5 ng/ml, detection biotin-B6 0.2 ug/ml, mean of A and B
牛血清白蛋白(BSA) (bovine) [29] = target: 牛血清白蛋白(BSA) (bovine) (UniProt P02769); assay: sandwich ELISA, coat B2 2 ug/ml, BSA 0.75 ng/ml, detection biotin-B6 0.2 ug/ml, mean of A and B
牛血清白蛋白(BSA) (bovine) [30] = target: 牛血清白蛋白(BSA) (bovine) (UniProt P02769); assay: indirect ELISA, BSA coated at 1 ug/ml, purified antibody at dilution 1K, HRP goat anti-mouse IgG
牛血清白蛋白(BSA) (bovine) [31] = target: 牛血清白蛋白(BSA) (bovine) (UniProt P02769); assay: indirect ELISA, BSA coated at 1 ug/ml, purified antibody at dilution 2K, HRP goat anti-mouse IgG
牛血清白蛋白(BSA) (bovine) [32] = target: 牛血清白蛋白(BSA) (bovine) (UniProt P02769); assay: indirect ELISA, BSA coated at 1 ug/ml, purified antibody at dilution 64K, HRP goat anti-mouse IgG
牛血清白蛋白(BSA) (bovine) [33] = target: 牛血清白蛋白(BSA) (bovine) (UniProt P02769); assay: indirect ELISA, BSA coated at 1 ug/ml, purified antibody at dilution 128K, HRP goat anti-mouse IgG
牛血清白蛋白(BSA) (bovine) [34] = target: 牛血清白蛋白(BSA) (bovine) (UniProt P02769); assay: indirect ELISA, BSA coated at 1 ug/ml, purified antibody at dilution 512K, HRP goat anti-mouse IgG
牛血清白蛋白(BSA) (bovine) [35] = target: 牛血清白蛋白(BSA) (bovine) (UniProt P02769); assay: indirect ELISA, BSA coated at 1 ug/ml, purified antibody at dilution 1024K, HRP goat anti-mouse IgG

Sequence of UniProt P02769 (P02769 25-607): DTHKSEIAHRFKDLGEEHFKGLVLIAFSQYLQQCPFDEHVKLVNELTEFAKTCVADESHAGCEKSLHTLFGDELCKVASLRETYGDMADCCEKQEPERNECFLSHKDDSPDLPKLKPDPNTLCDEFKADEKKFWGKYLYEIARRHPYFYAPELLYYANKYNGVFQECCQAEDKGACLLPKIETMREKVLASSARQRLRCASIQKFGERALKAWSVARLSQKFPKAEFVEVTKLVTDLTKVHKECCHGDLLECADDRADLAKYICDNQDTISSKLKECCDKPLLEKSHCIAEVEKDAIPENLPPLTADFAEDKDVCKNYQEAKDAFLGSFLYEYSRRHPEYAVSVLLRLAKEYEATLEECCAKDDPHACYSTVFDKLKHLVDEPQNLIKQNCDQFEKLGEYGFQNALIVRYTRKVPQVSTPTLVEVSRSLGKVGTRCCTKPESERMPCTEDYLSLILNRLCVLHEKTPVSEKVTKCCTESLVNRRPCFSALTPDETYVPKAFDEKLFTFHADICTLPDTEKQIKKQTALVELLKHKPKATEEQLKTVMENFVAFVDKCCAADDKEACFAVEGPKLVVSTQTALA

B1: BSA抗体B2 (antibody, V domains shown)
VH: VKLQESGGGLVKPGGSLKLSCAASGFTFSLYDESWVRQTPEKRLEWVAEIFLGVYRYVPESKVRFTMSRDNAKNTLYLQMSSLRSEDTAMYYCVRLCYWEPEVKKCWGQGTTVTVSS
VL: DIELTQSPLTLSVTIGQPASISCESDLSLKESLDWLLQRPGQSPKRLIYEDLNADCGVPDRFTGSGSGTDSTLKISRVEAEDLGVYYCEIKGTFRWSFGGGTKLEIK
B1 showed an OD450 (CHO细胞裂解液 [1]) of 0.132, an OD450 (HEK293细胞裂解液 [2]) of 0.142 and an OD450 (Vero细胞裂解液 [3]) of 0.129. It also gave an OD450 (HEK293细胞裂解液 [4]) of 0.139, an OD450 (CHO细胞裂解液 [5]) of 0.136 and an OD450 (HEK293细胞裂解液 [6]) of 0.132. The OD450 (Vero细胞裂解液 [7]) was 0.138, the OD450 (CHO细胞裂解液 [8]) was 0.141 and the OD450 (HEK293细胞裂解液 [9]) was 0.136. It also gave an OD450 (Vero细胞裂解液 [10]) of 0.136, an OD450 (CHO细胞裂解液 [11]) of 0.136 and an OD450 (HEK293细胞裂解液 [12]) of 0.134. For the same binder, the OD450 (Vero细胞裂解液 [13]) was 0.142, the OD450 (牛血清白蛋白(BSA) (bovine) [14]) was 0.319 and 0.332 and the OD450 (牛血清白蛋白(BSA) (bovine) [15]) was 0.509 and 0.515. For the same binder, the OD450 (牛血清白蛋白(BSA) (bovine) [16]) was 1.01 and 1, the OD450 (牛血清白蛋白(BSA) (bovine) [17]) was 1.51 and 1.5 and the OD450 (牛血清白蛋白(BSA) (bovine) [18]) was 2.2 and 2.21. For the same binder, the OD450 (牛血清白蛋白(BSA) (bovine) [19]) was 0.31 and 0.296, the OD450 (牛血清白蛋白(BSA) (bovine) [20]) was 1.6 and the OD450 (牛血清白蛋白(BSA) (bovine) [21]) was 1.22. It also gave an OD450 (牛血清白蛋白(BSA) (bovine) [22]) of 0.509, an OD450 (牛血清白蛋白(BSA) (bovine) [23]) of 0.308 and an OD450 (平均值) (牛血清白蛋白(BSA) (bovine) [24]) of 0.512. For the same binder, the OD450 (平均值) (牛血清白蛋白(BSA) (bovine) [25]) was 1, the OD450 (平均值) (牛血清白蛋白(BSA) (bovine) [26]) was 1.5 and the OD450 (平均值) (牛血清白蛋白(BSA) (bovine) [27]) was 2.21. For the same binder, the OD450 (平均值) (牛血清白蛋白(BSA) (bovine) [28]) was 0.408, the OD450 (平均值) (牛血清白蛋白(BSA) (bovine) [29]) was 0.303 and the OD450 (牛血清白蛋白(BSA) (bovine) [30]) was 2.13. The OD450 (牛血清白蛋白(BSA) (bovine) [31]) was 1.69, the OD450 (牛血清白蛋白(BSA) (bovine) [32]) was 0.335 and the OD450 (牛血清白蛋白(BSA) (bovine) [33]) was 0.357. It also gave an OD450 (牛血清白蛋白(BSA) (bovine) [34]) of 0.137 and an OD450 (牛血清白蛋白(BSA) (bovine) [35]) of 0.144.

— patent CN114591430A
